{"source": "patent US20100029568A1", "about": "“TIGHTER-BINDING C-PEPTIDE INHIBITORS OF HIV-1 ENTRY” (priority 2007, published 2010)", "key": {"[1]": {"biological_target": "wild type Env (gp120/gp41) from HIV-1 strain HXB2 (HIV-1 strain HXB2), P04578", "assay": "cell-based or functional assay"}, "[2]": {"biological_target": "Res 2 (L33S) Env from HIV-1 strain HXB2 (HIV-1 strain HXB2), P04578", "assay": "cell-based or functional assay"}, "[3]": {"biological_target": "V549E mutant Env (Res1) from HIV-1 strain HXB2 (HIV-1 strain HXB2), P04578", "assay": "cell-based or functional assay"}, "[4]": {"biological_target": "Res 4 (SDTV) Env from HIV-1 strain HXB2 (HIV-1 strain HXB2), P04578", "assay": "cell-based or functional assay"}, "[5]": {"biological_target": "Res 3 Env (N637K) from HIV-1 strain HXB2 (HIV-1 strain HXB2), P04578", "assay": "cell-based or functional assay"}, "[6]": {"biological_target": "N36 (HIV-1), P04578", "assay": "estimated Kd; method not stated"}, "[7]": {"biological_target": "N36 (HIV-1), P04578", "assay": "estimated Kd; method not stated; reference is wild type C37 on N36"}}}
{"binder": "HTTWMEWDREINKYISLIHSLIEESQNQQEKNEQELL (modifications not checked)", "note": "[C37-KYI]", "values": [{"measurement": "IC50, nM; inhibitory potency against pseudotyped HIV-1", "setting": "[1]", "value": 1, "unit": "nM"}, {"measurement": "IC50, nM; inhibitory potency against pseudotyped HIV-1", "setting": "[2]", "value": 1, "unit": "nM"}, {"measurement": "IC50, nM; inhibitory potency against pseudotyped HIV-1", "setting": "[3]", "value": 4.2, "unit": "nM"}, {"measurement": "IC50, nM; inhibitory potency against pseudotyped HIV-1", "setting": "[4]", "value": 0.6, "unit": "nM"}, {"measurement": "IC50, nM; inhibitory potency against pseudotyped HIV-1", "setting": "[5]", "value": 4.1, "unit": "nM"}, {"measurement": "Kd", "setting": "[6]", "value": 0.04, "unit": "pM"}, {"measurement": "fold lower Kd than wild type C37", "setting": "[7]", "value": "> 20", "unit": "fold"}]}
